Test results: patent US20210347908A1 (ELPISCIENCE SUZHOU BIOPHARMA, published 2021)
Changes are numbered by the printed parent chain. Like-named read-outs stand apart in the source and are kept apart here. One block for each binder: values may come before it.

Experiments:
[1] = target: T1, full length cyno SIRPα stably expressed on CHOK1 cells (cynomolgus monkey, UniProt A0A2K5VYQ9 31-507); assay: FACS on CHOK1 cells
T1 construct: whole, on cells; also called CHOK1-cyno SIRPα-2A2 cells; CHOK1-cyno SIRPα
T1 sequence: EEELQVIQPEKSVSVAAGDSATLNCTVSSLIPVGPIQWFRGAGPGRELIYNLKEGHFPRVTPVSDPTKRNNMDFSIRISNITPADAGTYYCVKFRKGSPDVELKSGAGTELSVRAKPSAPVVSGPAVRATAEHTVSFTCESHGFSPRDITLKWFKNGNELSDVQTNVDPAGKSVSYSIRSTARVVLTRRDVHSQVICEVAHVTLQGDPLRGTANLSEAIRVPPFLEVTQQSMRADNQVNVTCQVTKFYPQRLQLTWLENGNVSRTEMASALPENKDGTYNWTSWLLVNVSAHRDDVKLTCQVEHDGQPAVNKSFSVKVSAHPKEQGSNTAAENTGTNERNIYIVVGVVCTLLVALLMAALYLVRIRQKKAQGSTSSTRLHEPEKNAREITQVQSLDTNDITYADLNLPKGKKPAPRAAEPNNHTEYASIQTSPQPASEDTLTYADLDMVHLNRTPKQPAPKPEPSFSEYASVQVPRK
Experimental: Species cross reactivity of the purified hybridoma antibodies against human, cyno and mouse SIRPα was determined by FACS assay using CHOK1-human SIRPα v1-1B4 cells, CHOK1-cyno SIRPα-2A2 cells, and CHOK1-C57BL/6 mouse SIRPα-2.22 cells, which stably expressing SIRPα protein. Briefly the antibodies were incubated with 2×10⁵ target cells at 4° C. for 1 hour. After washing, fluorescence labeled anti-mouse or anti-human IgG 2nd antibody (Life Technologies) was added and incubated at 4° C. for 1 hour. Geometric median fluorescence intensity was detected and EC₅₀ was calculated. In particular, it is noted, in contrast to the other antibodies tested in the same experiment, 060 cannot bind with cyno SIRPα and 035 has cross reactivity against C57BL/6 mouse SIRPα.
The purified chimeric antibodies were applied for binding specificity analysis and species cross reactivity analysis (refer to methods described in Example 3.3 and 3.4). FIGS. 1A to 1D show binding specificity of anti-SIRPα chimeric antibodies against recombinant proteins of human SIRPα v1 ECD (A), human SIRPα v2 ECD (B), human SIRPβ ECD (C) and human SIRPγ ECD (D) as measured by ELISA analysis.

[2] = target: T2, chimeric SIRPα of B-hSIRPA mice (IgV domain of human SIRPα); IgC1/C2, transmembrane and intracellular domains … (human; mouse, UniProt P78324 31-149; P97797 151-513, limits assumed); assay: FACS on spleen cells of B-hSIRPA mice, anti-human IgG secondary antibody, gated on mCD11b/mF4/80 double positive monocytes
T2 construct: domain: IgV domain;domain: IgC1/C2, transmembrane and intracellular domains; whole, on cells (mCD11b+ mF4/80+ spleen monocytes); also called B-hSIRPA mice derived primary monocytes
Experimental: The humanized mice express a chimeric SIRPα, comprised of IgV domain of human SIRPα and IgC1/C2, transmembrane and intracellular domains of mouse SIRPα. Briefly spleen cells of B-hSIRPA mice were harvested and incubated with anti-SIRPα chimeric antibodies at 4° C. for 1 hour. After washing, fluorescence labeled anti-human IgG 2nd antibody (Life Technologies) was added and incubated at 4° C. for 1 hour. […] Anti-SIRPα positive staining population in mCD11b and mF4/80 double positive subset was calculated.

[3] = target: T3, full length C57BL/6 mouse SIRPα stably expressed on CHOK1 cells (mouse (C57BL/6), UniProt P97797 32-513); assay: FACS on CHOK1 cells
T3 construct: whole, on cells; also called CHOK1-C57BL/6 mouse SIRPα-2.22 cells
T3 sequence (looked up): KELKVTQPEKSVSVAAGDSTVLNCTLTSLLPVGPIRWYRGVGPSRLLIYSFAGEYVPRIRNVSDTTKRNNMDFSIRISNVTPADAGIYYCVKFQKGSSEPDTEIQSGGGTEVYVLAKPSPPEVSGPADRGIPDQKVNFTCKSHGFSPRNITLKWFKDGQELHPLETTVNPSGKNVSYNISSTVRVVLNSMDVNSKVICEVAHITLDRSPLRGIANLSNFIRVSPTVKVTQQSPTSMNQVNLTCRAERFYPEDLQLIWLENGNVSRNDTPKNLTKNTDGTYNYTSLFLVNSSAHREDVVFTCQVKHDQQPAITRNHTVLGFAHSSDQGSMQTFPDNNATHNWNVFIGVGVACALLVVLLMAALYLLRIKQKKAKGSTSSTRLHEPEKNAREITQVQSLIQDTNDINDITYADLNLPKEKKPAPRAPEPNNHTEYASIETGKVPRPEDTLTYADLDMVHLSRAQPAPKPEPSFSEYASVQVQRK

[4] = target: T1, full length cyno SIRPα stably expressed …; assay: FACS on CHOK1 cells; remark: listed apart in the source
[5] = target: T4, biotin labeled soluble human SIRPα v1 ECD recombinant protein (human, UniProt P78324 31-373, biotin labeled); assay: competitive ELISA; competitor 002
T4 construct: extracellular domain
Experimental: (§1) Competitive ELISA assay was used for epitope binning of 9 functional antibodies. Briefly excessive competitor antibody and biotin labeled soluble human SIRPα v1 ECD recombinant protein were co-incubated with ELISA microplate coated antibody. After washing, HRP-SA was added and incubated at 37° C. for 1 hour. Then, […] of TMB solution (Biotechnology) was added. After incubation for 15 minutes at room temperature, the reaction was stopped by the addition of […] of 1N HCl. OD 450 nm was read. Competition ratio was calculated. The antibodies that can compete each other for binding to SIRPα have the similar binding epitope.

[6] = target: T4, biotin labeled soluble human SIRPα v1 …; assay: competitive ELISA; competitor 055
Experimental: as §1

[7] = target: T4, biotin labeled soluble human SIRPα v1 …; assay: competitive ELISA; competitor 032
Experimental: as §1

[8] = target: T4, biotin labeled soluble human SIRPα v1 …; assay: competitive ELISA; competitor KWAR23
Experimental: as §1

[9] = target: T4, biotin labeled soluble human SIRPα v1 …; assay: competitive ELISA; competitor 060
Experimental: as §1

[10] = target: T4, biotin labeled soluble human SIRPα v1 …; assay: competitive ELISA; competitor 050
Experimental: as §1

T4 sequence (P78324 31-373): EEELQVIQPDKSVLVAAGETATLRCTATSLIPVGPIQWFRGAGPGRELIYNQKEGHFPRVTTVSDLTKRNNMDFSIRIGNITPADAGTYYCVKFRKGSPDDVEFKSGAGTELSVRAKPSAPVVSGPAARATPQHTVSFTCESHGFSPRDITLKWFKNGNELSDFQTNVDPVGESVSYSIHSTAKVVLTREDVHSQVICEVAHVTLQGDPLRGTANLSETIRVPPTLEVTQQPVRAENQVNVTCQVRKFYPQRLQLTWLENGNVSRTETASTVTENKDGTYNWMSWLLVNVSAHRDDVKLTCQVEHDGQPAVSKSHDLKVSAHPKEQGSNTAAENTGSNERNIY
T2 sequence (P78324 other isoform, or with tags, fused parts or gaps mutant limits assumed): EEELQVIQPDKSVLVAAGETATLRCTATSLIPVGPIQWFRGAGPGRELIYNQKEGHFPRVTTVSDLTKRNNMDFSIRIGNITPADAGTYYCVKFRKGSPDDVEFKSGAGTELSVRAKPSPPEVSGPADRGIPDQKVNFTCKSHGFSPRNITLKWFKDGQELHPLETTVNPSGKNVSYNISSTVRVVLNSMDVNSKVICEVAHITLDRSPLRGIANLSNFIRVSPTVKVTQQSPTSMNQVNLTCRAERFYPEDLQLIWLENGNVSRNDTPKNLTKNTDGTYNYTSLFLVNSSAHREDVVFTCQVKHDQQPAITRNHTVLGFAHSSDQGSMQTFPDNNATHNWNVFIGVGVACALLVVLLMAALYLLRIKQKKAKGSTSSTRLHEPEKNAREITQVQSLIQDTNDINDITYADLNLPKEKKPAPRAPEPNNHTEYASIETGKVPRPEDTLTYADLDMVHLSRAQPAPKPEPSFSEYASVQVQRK

binding result [1]: no binding (tested: 10 nM)
Positive Staining Population (% in mCD11b, mF4/80 double positive subset) [2]: 86%
B2: chimeric antibody 060c (antibody, V domains shown)
VH: QVQLKESGPGLVAPSESLSITCTVSGFSLTNYDISWIRQSPGKGLEWLGVIWTGGDTNFNSAFMSRLSISKDKSKSQVFLKLNSLQTDDTAIYYCVRVQYFGGSYGPMDYWGQGISVTVSS
VL: DIQMTQASSYLSVSLGGRVTITCEASDHINDWLAWYQQTPGNAPRLLISGATSLETGVPSRFSGSGSGKDYTLSITSLQTEDIATYYCQQYWNTPLTFGAGTRLELK

MFI at 10 nM [1]: 24600 MFI
MFI at 2 ug/ml [3]: 310 MFI
EC50 [4]: 0.42 nM
Positive Staining Population (% in mCD11b, mF4/80 double positive subset) [2]: 91.3%
B5: chimeric antibody 035c (antibody, V domains shown)
VH: QIQLVQSGPELRKPGETVKISCKASGYSFTNYAMNWVKQAPGKVLKWMGFINTYTGEPTYADDFKGRFAFSLETSASTAYLQINNLKNEDTATYFCTRTRGYYDFDGGAFDYWGQGTSLTVSS
VL: DIVMTQSQKFMSTSIGDRVSVTCKASQNVGTHLAWYQQKPGQSPKALIFSASYRYIGVPDRFTGSGSGTDFTLTITNVQSEDLAEYFCQQYNTYPLTFGAGTKLELK

% Competition [5]: 94%
MFI at 10 nM [1]: 27600 MFI
% Competition [6]: 0%
% Competition [7]: 97%
MFI at 10 nM [4]: 37900 MFI
% Competition [8]: 93%
% Competition [9]: 10%
% Competition [10]: 7%
B7: reference antibody 29-AM4-5 (antibody, V domains shown)
VH: EVQLVESGGGLVQPGGSLRLSCAASGFNISYYFIHWVRQAPGKGLEWVASVYSSFGYTYYADSVKGRFTISADTSKNTAYLQMNSLRAEDTAVYYCARFTFPGLFDGFFGAYLGSLDYWGQGTLVTVSS
VL: DIQMTQSPSSLSASVGDRVTITCRASQSVSSAVAWYQQKPGKAPKLLIYSASSLYSGVPSRFSGSRSGTDFTLTISSLQPEDFATYYCQQAVNWVGALVTFGQGTKVEIK

MFI at 10 nM [1]: 19000 MFI
Positive Staining Population (% in mCD11b, mF4/80 double positive subset) [2]: 91.5%
B9: chimeric antibody 032c (antibody, V domains shown)
VH: EVRLEESGGGLVQPGGSMKLSCVVSGFTFRNYWMNWVRQSPERGLEWIAEITLKSNTYATHYAESVKGRFAISRDDSKSSFYLQMNDLRPEDTGIYYCTTFTKVVADWHLDVWGAGTTVTVSS
VL: DVLMTQTPLSLPVNLGDQASISCRSSQNIVHSNGNTYLEWYLQKPGQSPKLLIYKVSNRFSGVPDRFSGSGSGTDFTLRISRVEAEDLGVYYCFQGSHVPFTFGSGTKLEIK

More lines, now with the values behind:

B1: chimeric antibody 074c (antibody, V domains shown)
VH: QVQLQQPRAELVKPGASVMLSCKASGYTFSSYWIHWVRQGPGQGLEWIGLIHPNSGNTDCSETFKNKATLTVDTSSSTAYMQLSSLASEDSAVYYCARDGASYDWFVHWGQGTLVTVSA
VL: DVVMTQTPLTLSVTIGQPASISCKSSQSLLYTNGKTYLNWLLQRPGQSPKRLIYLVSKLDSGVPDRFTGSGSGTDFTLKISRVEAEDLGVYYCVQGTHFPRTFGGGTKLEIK
MFI at 10 nM [1]: 12200 MFI
Positive Staining Population (% in mCD11b, mF4/80 double positive subset) [2]: 0.14%
binding result [2]: no binding

B3: chimeric antibody 022c (antibody, V domains shown)
VH: QIQLVQSGPELKKPGETVKISCKASGYTFTDYAMHWVKQAPGKGLKWMGWKNTETGESTYAEDFKGRFAFFLETSASTAYLQINNVKNEDTATYFCARGGYGSNYVMDYWGQGTSVIVSS
VL: DIQMTQSSSSFSVSLGDRVTITCKASEDIYNRLAWYQQKPGNAPRLLISGATSLETGVPSRFSGSGSGKDYTLSITSLQTEDVATYYCQQYWNSPRTFGGGTKLEIK
MFI at 10 nM [1]: 23500 MFI
binding result [2]: no binding

B4: chimeric antibody 050c (antibody, V domains shown)
VH: QIQLVQSGPELKKPGETVKISCKASGYTFTHYSMHWVKQAPGKGLKWMGWINTETAEPTYVDDFKGRFAFSLEASASTAFFQINNLKNEDTATYFCARGGLRQGDYWGQGTTLTVSS
VL: QIVLTQSPPIMSASPGEKVTLTCSATSSVSASYLYWFQQKPGSSPKLWIYSTSNLASGVPARFSGSGSGTSYSLTISNMEPADAASYFCHQWSSYPYTFGGGTKLEIK
MFI at 10 nM [1]: 20500 MFI
Positive Staining Population (% in mCD11b, mF4/80 double positive subset) [2]: 0.16%
binding result [2]: no binding

B6: chimeric antibody 055c (antibody, V domains shown)
VH: EVKLVESEGGLVQPGDSMKLSCTASGFTFSDYFMTWIRQVPEKGLEWIANVNYDGRSTYYLDSLKSRFIISRDNANNILYLQMSSLKSEDTATYYCAREGSQTPLYAVDYWGQGTSVTVSS
VL: DIVMTQSQKFMSTTVGDRVNITCKASQNVGTAVAWYQQKPGQSPKLLIYLASNRYTGVPDRFTGSGSGTDFTLTVSDMRSEDLADYFCQQYSIYPFTFGSGTKLEIK
MFI at 10 nM [1]: 8060 MFI
Positive Staining Population (% in mCD11b, mF4/80 double positive subset) [2]: 0.13%
binding result [2]: no binding

B8: chimeric antibody 001c (antibody, V domains shown)
VH: B9 VH with R3K, V24A, T52S, D76G, P90A
VL: B9 VL with N14S
MFI at 10 nM [1]: 24900 MFI
Positive Staining Population (% in mCD11b, mF4/80 double positive subset) [2]: 91%

B10: chimeric antibody 002c (antibody, V domains shown)
VH: B9 VH with R3K, K19I, V24A
VL: B9 VL with N14S, V56I, K112Q
MFI at 10 nM [1]: 17100 MFI
Positive Staining Population (% in mCD11b, mF4/80 double positive subset) [2]: 88.9%
